These results are taken from patent publication US20260176319A1 (KALLYOPE, published 2026).

Starred links: 1 amine or outer side, 2 acyl side, 3 side chain; linkers in the order of their positions; H or OH if unused. Non-standard residues stand in square brackets, D forms with d. Groups on a side chain read outwards from the residue. *: point of attachment. Trp(7-F) = N[C@@H](Cc1c[nH]c2c(F)cccc12)C(=O)O; Trp(7-Me) = Cc1cccc2c(C[C@H](N)C(=O)O)c[nH]c12; d(γGlu) = O=C(O)[C@@H](CCC(=O)[*:2])N[*:1]; C18 diacid = O=C(O)CCCCCCCCCCCCCCCCC(=O)*; Palmitoyl = CCCCCCCCCCCCCCCC(=O)*; 2Pal = N[C@@H](Cc1ccccn1)C(=O)O; 3Pal = N[C@@H](Cc1cccnc1)C(=O)O; 4Pal = N[C@@H](Cc1ccncc1)C(=O)O; Nle = CCCC[C@H](N)C(=O)O; AEEA = NCCOCCOCC(=O)O; Aib = CC(C)(N)C(=O)O; Sar = CNCC(=O)O

The labels stand for the following.
B1: Peptide 56 (peptide)
peptide: Palmitoyl-[d(γGlu)][AEEA][AEEA]GNH[Trp(7-F)]AV[dA]HL[Nle]-NH2
SMILES: CCCCCCCCCCCCCCCC(=O)N[C@H](CCC(=O)NCCOCCOCC(=O)NCCOCCOCC(=O)NCC(=O)N[C@@H](CC(N)=O)C(=O)N[C@@H](Cc1c[nH]cn1)C(=O)N[C@@H](Cc1c[nH]c2c(F)cccc12)C(=O)N[C@@H](C)C(=O)N[C@H](C(=O)N[C@H](C)C(=O)N[C@@H](Cc1c[nH]cn1)C(=O)N[C@@H](CC(C)C)C(=O)N[C@@H](CCCC)C(N)=O)C(C)C)C(=O)O
B2: Peptide 3 (peptide)
peptide: Palmitoyl-[d(γGlu)][AEEA][AEEA]GN[3Pal]WAV[Aib]HL[Nle]-NH2
SMILES: CCCCCCCCCCCCCCCC(=O)N[C@H](CCC(=O)NCCOCCOCC(=O)NCCOCCOCC(=O)NCC(=O)N[C@@H](CC(N)=O)C(=O)N[C@@H](Cc1cccnc1)C(=O)N[C@@H](Cc1c[nH]c2ccccc12)C(=O)N[C@@H](C)C(=O)N[C@H](C(=O)NC(C)(C)C(=O)N[C@@H](Cc1c[nH]cn1)C(=O)N[C@@H](CC(C)C)C(=O)N[C@@H](CCCC)C(N)=O)C(C)C)C(=O)O
B3: Peptide 52 (peptide)
peptide: Palmitoyl-[d(γGlu)][AEEA][AEEA]GN[4Pal]WAV[dA]HL[Nle]-NH2
SMILES: CCCCCCCCCCCCCCCC(=O)N[C@H](CCC(=O)NCCOCCOCC(=O)NCCOCCOCC(=O)NCC(=O)N[C@@H](CC(N)=O)C(=O)N[C@@H](Cc1ccncc1)C(=O)N[C@@H](Cc1c[nH]c2ccccc12)C(=O)N[C@@H](C)C(=O)N[C@H](C(=O)N[C@H](C)C(=O)N[C@@H](Cc1c[nH]cn1)C(=O)N[C@@H](CC(C)C)C(=O)N[C@@H](CCCC)C(N)=O)C(C)C)C(=O)O
B4: Peptide 22 (peptide)
peptide: Palmitoyl-[d(γGlu)][AEEA][AEEA]GNH[Trp(7-Me)]AV[Aib]HL[Nle]-NH2
SMILES: CCCCCCCCCCCCCCCC(=O)N[C@H](CCC(=O)NCCOCCOCC(=O)NCCOCCOCC(=O)NCC(=O)N[C@@H](CC(N)=O)C(=O)N[C@@H](Cc1c[nH]cn1)C(=O)N[C@@H](Cc1c[nH]c2c(C)cccc12)C(=O)N[C@@H](C)C(=O)N[C@H](C(=O)NC(C)(C)C(=O)N[C@@H](Cc1c[nH]cn1)C(=O)N[C@@H](CC(C)C)C(=O)N[C@@H](CCCC)C(N)=O)C(C)C)C(=O)O
B5: Peptide 49 (peptide)
peptide: EXXGNHWAVXHLK
modifications: Palmitoyl-D-γGlu-OEG-OEG-Gly-Asn-His-Trp-Ala-Val-D-Ala-His-Leu-Lys(Me)3-NH2
B6: Peptide 51 (peptide)
peptide: Palmitoyl-[d(γGlu)][AEEA][AEEA]GN[2Pal]WAV[dA]HL[Nle]-NH2
SMILES: CCCCCCCCCCCCCCCC(=O)N[C@H](CCC(=O)NCCOCCOCC(=O)NCCOCCOCC(=O)NCC(=O)N[C@@H](CC(N)=O)C(=O)N[C@@H](Cc1ccccn1)C(=O)N[C@@H](Cc1c[nH]c2ccccc12)C(=O)N[C@@H](C)C(=O)N[C@H](C(=O)N[C@H](C)C(=O)N[C@@H](Cc1c[nH]cn1)C(=O)N[C@@H](CC(C)C)C(=O)N[C@@H](CCCC)C(N)=O)C(C)C)C(=O)O
B7: Peptide 46 (peptide)
peptide: {C18 diacid}-[dE][AEEA][AEEA]GNH[Trp(7-Me)]AV[dA]HL[Nle]-NH2
SMILES: CCCC[C@H](NC(=O)[C@H](CC(C)C)NC(=O)[C@H](Cc1c[nH]cn1)NC(=O)[C@@H](C)NC(=O)[C@@H](NC(=O)[C@H](C)NC(=O)[C@H](Cc1c[nH]c2c(C)cccc12)NC(=O)[C@H](Cc1c[nH]cn1)NC(=O)[C@H](CC(N)=O)NC(=O)CNC(=O)COCCOCCNC(=O)COCCOCCNC(=O)[C@@H](CCC(=O)O)NC(=O)CCCCCCCCCCCCCCCCC(=O)O)C(C)C)C(N)=O
B8: Peptide 26 (peptide)
peptide: Palmitoyl-[d(γGlu)]GNHWAV[dA]HL[Nle]-NH2
SMILES: CCCCCCCCCCCCCCCC(=O)N[C@H](CCC(=O)NCC(=O)N[C@@H](CC(N)=O)C(=O)N[C@@H](Cc1c[nH]cn1)C(=O)N[C@@H](Cc1c[nH]c2ccccc12)C(=O)N[C@@H](C)C(=O)N[C@H](C(=O)N[C@H](C)C(=O)N[C@@H](Cc1c[nH]cn1)C(=O)N[C@@H](CC(C)C)C(=O)N[C@@H](CCCC)C(N)=O)C(C)C)C(=O)O
B9: Peptide 54 (peptide)
peptide: Palmitoyl-[d(γGlu)][AEEA][AEEA][AEEA][AEEA]GNHWAV[dA]HL[Nle]-NH2
SMILES: CCCCCCCCCCCCCCCC(=O)N[C@H](CCC(=O)NCCOCCOCC(=O)NCCOCCOCC(=O)NCCOCCOCC(=O)NCCOCCOCC(=O)NCC(=O)N[C@@H](CC(N)=O)C(=O)N[C@@H](Cc1c[nH]cn1)C(=O)N[C@@H](Cc1c[nH]c2ccccc12)C(=O)N[C@@H](C)C(=O)N[C@H](C(=O)N[C@H](C)C(=O)N[C@@H](Cc1c[nH]cn1)C(=O)N[C@@H](CC(C)C)C(=O)N[C@@H](CCCC)C(N)=O)C(C)C)C(=O)O
B10: Peptide 25 (peptide)
peptide: GNHWAVXHLX
modifications: not fully specified; Ac-Gly-Asn-His-Trp-Ala-Val-D-Ala-His-Leu-Nle-H2N(CH2)3NH2-OEG-OEG-(α-Palmitoyl-D-γGlu)
B11: Peptide 57 (peptide)
peptide: Palmitoyl-[d(γGlu)][AEEA][AEEA]GK([AEEA-AEEA-d(γGlu)-Palmitoyl])HWAV[dA]HL[Nle]-NH2
SMILES: CCCCCCCCCCCCCCCC(=O)N[C@H](CCC(=O)NCCOCCOCC(=O)NCCOCCOCC(=O)NCCCC[C@H](NC(=O)CNC(=O)COCCOCCNC(=O)COCCOCCNC(=O)CC[C@@H](NC(=O)CCCCCCCCCCCCCCC)C(=O)O)C(=O)N[C@@H](Cc1c[nH]cn1)C(=O)N[C@@H](Cc1c[nH]c2ccccc12)C(=O)N[C@@H](C)C(=O)N[C@H](C(=O)N[C@H](C)C(=O)N[C@@H](Cc1c[nH]cn1)C(=O)N[C@@H](CC(C)C)C(=O)N[C@@H](CCCC)C(N)=O)C(C)C)C(=O)O
B12: Peptide 48 (peptide)
peptide: Palmitoyl-[d(γGlu)][AEEA][AEEA]GNHWAV[dA]HL[Nle][Sar]-NH2
SMILES: CCCCCCCCCCCCCCCC(=O)N[C@H](CCC(=O)NCCOCCOCC(=O)NCCOCCOCC(=O)NCC(=O)N[C@@H](CC(N)=O)C(=O)N[C@@H](Cc1c[nH]cn1)C(=O)N[C@@H](Cc1c[nH]c2ccccc12)C(=O)N[C@@H](C)C(=O)N[C@H](C(=O)N[C@H](C)C(=O)N[C@@H](Cc1c[nH]cn1)C(=O)N[C@@H](CC(C)C)C(=O)N[C@@H](CCCC)C(=O)N(C)CC(N)=O)C(C)C)C(=O)O
B13: Peptide 2 (peptide)
peptide: Palmitoyl-[d(γGlu)][AEEA][AEEA]GNHWAV[Aib][3Pal]L[Nle]-NH2
SMILES: CCCCCCCCCCCCCCCC(=O)N[C@H](CCC(=O)NCCOCCOCC(=O)NCCOCCOCC(=O)NCC(=O)N[C@@H](CC(N)=O)C(=O)N[C@@H](Cc1c[nH]cn1)C(=O)N[C@@H](Cc1c[nH]c2ccccc12)C(=O)N[C@@H](C)C(=O)N[C@H](C(=O)NC(C)(C)C(=O)N[C@@H](Cc1cccnc1)C(=O)N[C@@H](CC(C)C)C(=O)N[C@@H](CCCC)C(N)=O)C(C)C)C(=O)O
B14: Peptide 24 (peptide)
peptide: Palmitoyl-[d(γGlu)][AEEA][AEEA]GEHWAV[Aib]HL[Nle]-NH2
SMILES: CCCCCCCCCCCCCCCC(=O)N[C@H](CCC(=O)NCCOCCOCC(=O)NCCOCCOCC(=O)NCC(=O)N[C@@H](CCC(=O)O)C(=O)N[C@@H](Cc1c[nH]cn1)C(=O)N[C@@H](Cc1c[nH]c2ccccc12)C(=O)N[C@@H](C)C(=O)N[C@H](C(=O)NC(C)(C)C(=O)N[C@@H](Cc1c[nH]cn1)C(=O)N[C@@H](CC(C)C)C(=O)N[C@@H](CCCC)C(N)=O)C(C)C)C(=O)O
B15: Peptide 53 (peptide)
peptide: {C18 diacid}-[d(γGlu)][AEEA][AEEA][AEEA][AEEA]GNHWAV[dA]HL[Nle]-NH2
SMILES: CCCC[C@H](NC(=O)[C@H](CC(C)C)NC(=O)[C@H](Cc1c[nH]cn1)NC(=O)[C@@H](C)NC(=O)[C@@H](NC(=O)[C@H](C)NC(=O)[C@H](Cc1c[nH]c2ccccc12)NC(=O)[C@H](Cc1c[nH]cn1)NC(=O)[C@H](CC(N)=O)NC(=O)CNC(=O)COCCOCCNC(=O)COCCOCCNC(=O)COCCOCCNC(=O)COCCOCCNC(=O)CC[C@@H](NC(=O)CCCCCCCCCCCCCCCCC(=O)O)C(=O)O)C(C)C)C(N)=O
B16: Peptide 47 (peptide)
peptide: {C18 diacid}-[d(γGlu)][AEEA][AEEA]GNHWAV[dA]HL[Nle][Sar]-NH2
SMILES: CCCC[C@H](NC(=O)[C@H](CC(C)C)NC(=O)[C@H](Cc1c[nH]cn1)NC(=O)[C@@H](C)NC(=O)[C@@H](NC(=O)[C@H](C)NC(=O)[C@H](Cc1c[nH]c2ccccc12)NC(=O)[C@H](Cc1c[nH]cn1)NC(=O)[C@H](CC(N)=O)NC(=O)CNC(=O)COCCOCCNC(=O)COCCOCCNC(=O)CC[C@@H](NC(=O)CCCCCCCCCCCCCCCCC(=O)O)C(=O)O)C(C)C)C(=O)N(C)CC(N)=O
B17: Peptide 23 (peptide)
peptide: Palmitoyl-[d(γGlu)][AEEA][AEEA]GNH[Trp(7-Me)]AV[Aib][3Pal]L[Nle][Sar]-NH2
SMILES: CCCCCCCCCCCCCCCC(=O)N[C@H](CCC(=O)NCCOCCOCC(=O)NCCOCCOCC(=O)NCC(=O)N[C@@H](CC(N)=O)C(=O)N[C@@H](Cc1c[nH]cn1)C(=O)N[C@@H](Cc1c[nH]c2c(C)cccc12)C(=O)N[C@@H](C)C(=O)N[C@H](C(=O)NC(C)(C)C(=O)N[C@@H](Cc1cccnc1)C(=O)N[C@@H](CC(C)C)C(=O)N[C@@H](CCCC)C(=O)N(C)CC(N)=O)C(C)C)C(=O)O

The target of this assay is human GRP receptor (human, UniProt P30550 1-384). Briefly: cell-based or functional assay.
Sequence of human GRP receptor (P30550 whole entry): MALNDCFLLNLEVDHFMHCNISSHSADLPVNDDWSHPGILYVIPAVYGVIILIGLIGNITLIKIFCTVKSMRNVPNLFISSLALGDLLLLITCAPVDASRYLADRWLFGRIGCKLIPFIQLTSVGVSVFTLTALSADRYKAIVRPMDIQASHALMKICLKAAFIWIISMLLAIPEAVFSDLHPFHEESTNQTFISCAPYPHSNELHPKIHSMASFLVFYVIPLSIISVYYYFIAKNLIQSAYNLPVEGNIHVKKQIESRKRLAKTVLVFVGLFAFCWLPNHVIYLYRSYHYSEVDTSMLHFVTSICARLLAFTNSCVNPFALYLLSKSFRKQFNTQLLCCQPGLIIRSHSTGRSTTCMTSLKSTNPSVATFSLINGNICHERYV
In the case of B1, the “hIP1 GRPR EC50” value was 1.97 nM. For B2 the value was 8.7 nM; for B3, 1.75 nM; for B4, 10.3 nM.

With B5, the “hIP1 GRPR EC50” value was 4040 nM. Regarding B6, the “hIP1 GRPR EC50” value is 0.95 nM. B7: the “hIP1 GRPR EC50” value was 9.9 nM. For B8 the value was 1.8 nM; for B9, 3.12 nM; for B10, 10000 nM. For B11 the value was 72.8 nM. For B12 the value was 1.1 nM; for B13, 822 nM.

Consider B14, for which the “hIP1 GRPR EC50” value was found to be 183 nM.

Take B15: the “hIP1 GRPR EC50” value amounted to 42 nM. With B16 the figure was 216 nM. For B17 the value was 1090 nM.
